For experiment [1], the target named is T1, Recombinant activated HRAS (G12V; residues 1-166), GppNp-bound (human, UniProt P01112 1-166, loaded with 5'-guanylylimidodiphosphate (GppNp), a non-covalent nucleotide).
T1 construct: range 1-166; Antigen of the ELISA and BIAcore assays; also called HRASG12V-GppNp; RASG12V-GppNp
Put plainly: SPR (BIAcore 2000), Example 12. On the technique in general: Surface plasmon resonance follows binding to a sensor surface in real time, without labels.

Experiment [2] deals with T1, Recombinant activated HRAS (G12V; …). In words: SPR (BIAcore 2000), purified His-tagged fragment on RAS antigen.
In experiment [3] the target is T2, LexA DBD (made from the empty pBTM116 vector) (UniProt P0A7C2 1-202).
T2 construct: domain: LexA DBD; Yeast bait control
T2 sequence (looked up): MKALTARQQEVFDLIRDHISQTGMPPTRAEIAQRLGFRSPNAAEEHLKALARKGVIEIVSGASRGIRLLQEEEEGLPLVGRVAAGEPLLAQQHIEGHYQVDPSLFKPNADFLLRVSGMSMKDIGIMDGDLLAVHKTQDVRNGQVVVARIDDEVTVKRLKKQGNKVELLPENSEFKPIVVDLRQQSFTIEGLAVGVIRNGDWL
Put plainly: yeast two-hybrid, scFv-VP16 prey (data not shown).

The target in experiment [4] is β-galactosidase (non-relevant antigen bait in yeast) (UniProt P00722 1-1024 = β-galactosidase, limits assumed). Put plainly: yeast two-hybrid, scFv-VP16 prey (data not shown).
Experiment [5] addresses T1, Recombinant activated HRAS (G12V; …). In words: SPR (BIAcore 2000), HRASG12V-GppNp immobilised (about 1500 RU), purified scFv as analyte, Example 4.
The target is the same in experiment [6]. In words: SPR, BIAcore 2000; HRASG12V-GppNp immobilised, purified scFv injected; BIAevaluation 2.1.
The next experiment concerns the target T3, BSA (bovine, UniProt P02769).
T3 construct: coated on the ELISA plate at 30 mg/ml as control antigen; also called bovine serum albumin
In words: ELISA; BSA coated at 30 mg/ml, purified His-tagged scFv, detection with HRP anti-polyhistidine, absorption 450-650 nm.

For experiment [7], the target named is HRASG12V expressed in NIH3T3 cells from pZIPneoSV(X)-HRASG12V (UniProt P01112 1-186, limits assumed). In words: cell-based or functional assay.
In experiment [8] the target is T4, Gal4 DBD fused to HRASG12V (codons 1-166) (mammalian bait from pM1-HRASG12V) (UniProt P04386 1-147; P01112 1-166).
T4 construct: domain: Gal4 DBD;range 1-166; Expressed inside COS7 or CHO cells; also called pM1-RASG12V; pM-RASG12V
In words: COS7 luciferase reporter with HRAS, KRAS or NRAS (data not shown). A general note: Reporter assays use an easily measured gene product as a stand-in for the process of interest.

The target in experiment [9] is T4, Gal4 DBD fused to HRASG12V (codons …). In words: cell-based or functional assay.
Experiment [10] concerns the target T1, Recombinant activated HRAS (G12V; …). In words: SPR (BIAcore 2000), HRASG12V-GppNp immobilised (about 1500 RU), purified scFv as analyte, Example 4; Example 4, BIAcore, FIG. 6B.

B1: IDab anti-RAS #3 (other)
VH: QVQLVESGGGLVQPGGSLRLSCAASGFTFSSYAMHWVRQAPGKGLEWVSVISKLTHHTYYADSVKGRFTISRDNSKNTLYLQMNSLRAEDTAVYYCARGVQGYVHGLKGNWFDYWGQGTLVTVSS
notes: also called anti-RAS clone #3; clone 3
For B1, the Kd (commonly the concentration at which binding is half-saturated) in [1] was ~180 nM. For the same molecule, in [2], the koff (in general, the first-order rate constant of dissociation) is 0.00104 s⁻¹ and the kon (commonly the rate constant with which the complex forms) worked out at 5660 M⁻¹ s⁻¹.

B2: anti-RAS scFv I21 (scFv)
scFv: EVQLLESGGGLVQPGGSLRLSCAASGFTFSSYAMSWVRQAPGKGLEWVSTISYGGSNTNYADSVKARFTISRDNSKNTLYLQMNSLRAEDTAVYYCAKGNNAFDYWGQGTLVTVSSGGGGSGGGGSGGGGSTDIQMTQSPSSLSASVGDRVTITCRASQSISSYLNWYQQKPGKAPKLLIYNASALQSGVPSRFSGSGSGTDFTLTISSLQPEDFATYYCQQYTSTPRTFGQGTKVEIKR
notes: also called ICAb I21
For the molecule B2, the figures for the binding result (in [3]; in experiment [4]; with BSA) were “no binding”, “no binding” and “no binding (tested: 450 ng per well (legend))”, respectively. Besides, the results for the Kd in [5] and in experiment [6] were 2160 nM and 1310 nM, respectively. The koff in [6] turned out to be 0.0212 s⁻¹. In addition, the kon in [6] amounted to 16700 M⁻¹ s⁻¹.

B3: IDab anti-RAS #6 (other)
VH: EVQLLESGGGLVQPGGSLRLSCAASGFSFSTFSMNWVRQAPGKGLEWVSYISRTSKTIYYADSVKGRFTISRDNSKNTLYLQMNSLRAEDTAVYYCARGRFFDYWGQGTLVTVSS
For the molecule B3, the “transforming activity in NIH3T3 cells, relative to HRASG12V alone” value in experiment [7] was < 10%.

B4: IDab anti-RAS #12 (other)
VH: EVQLLESGGGLVQPGGSLRLSCAASGFSFSVWAMSWVRQAPGKGLEWVSYISRTSKTIYYADSVKGRFTISRDNSKNTLYLQMNSLRAEDTAVYYCARGRFFDYWGQGTLVTVSS
Take B4: the Kd in experiment [1] is ~26 nM. For the same molecule, the binding result in [8] is on record as “binds”.

B5: IDab 33 (single VH domain of anti-RAS scFv33) (other)
VH: QVQLVEAGGGLVQPGGSLRLSCAASGFSFSTFSMNWVRQAPGKGLEWVSYISSSGRTIYYADSVKGRFTISRDNAKNSLYLQMNSLRDEDTAVYYCARGRFFDYWGQGTLVTVSS
notes: also called 33VH; VH from intrabody anti-RAS scFv33
In the case of B5, the Kd in [1] is ~90 nM. Further, in experiment [2], the koff turned out to be 0.0144 s⁻¹ and the kon was 12500 M⁻¹ s⁻¹.

B6: anti-RAS scFv33 (scFv)
scFv: QVQLVEAGGGLVQPGGSLRLSCAASGFSFSTFSMNWVRQAPGKGLEWVSYISSSGRTIYYADSVKGRFTISRDNAKNSLYLQMNSLRDEDTAVYYCARGRFFDYWGQGTLVTVSSGGGGSGGGGSGGGGSDIVMTQSPSFLSASVGDRVTITCRASQSISRYLNWYQQKPGKAPKLLIYAASSLQSGVPSRFSGSGSGTDFTLTISSLQPEDFAIYYCQQSYSTLLTFGGGTKLEIKR
notes: ELISA and BIAcore: purified from periplasm with C-terminal His6-tag and myc-tag; Two-hybrid: fused to VP16 AD; Co-location: with nls and myc-tag; also called ICAb 33
Take B6: the “luciferase reporter activation in COS7 cells” value in experiment [9] was > 10 fold. The Kd in experiment [1] is ~10 nM; in experiment [6], 9.97 nM; in experiment [10], 1.39 nM. In addition, the binding result in experiment [3] was “no binding”; in [4], “no binding”; with BSA, “no binding (tested: 450 ng per well (legend))”. Also, the koff in experiment [2] and in experiment [6] was 0.00113 s⁻¹ in each case. For the same molecule, the kon in [2] and in [6] was 176000 M⁻¹ s⁻¹ throughout.

B7: anti-RAS scFv J48 (scFv)
scFv: QVQLVEAGGGLVQPGGSLRLSCAASGFSFSYLYMNWVRQAPGKGLEWVSYISSSGRTIYYADSVKGRFTISRDNAKNSLYLQMNSLRDEDTAVYYCARGRFFDYWGQGTLVTVSSGGGGSGGGGSGGGGSDIVMTQSPSFLSASVGDRVTITCRASQSISRYLNWYQQKPGKAPKLLIYAASSLQSGVPSRFSGSGSGTDFTLTISSLQPEDFAIYYCQQSYSTLLTFGGGTKLEIKR
notes: Same formats as scFv33 (His6/myc purified; VP16 fusion; nls-myc)
On to B7, for which, in [9], the “luciferase reporter activation in COS7 cells” value was > 10 fold. For the same molecule, the binding result in experiment [3] is on record as “no binding”; in experiment [4] it was “no binding”; in the experiment with BSA it was “no binding (tested: 450 ng per well (legend))”. For the same molecule, the Kd in experiment [6] came to 2.6 nM; in experiment [10], 3.63 nM. Further, the koff in [6] came to 0.00482 s⁻¹. Moreover, the kon in [6] was determined as 1.87e+06 M⁻¹ s⁻¹.

(Values after patent US20050288492A1 (MEDICAL RESEARCH COUNCIL, published 2005).)
